Positions count from the first letter of the chain named. In names and notes the source's numbering stands.
B1: M257Y.I305A: opsin (rhodopsin) double mutant, M257Y on TMH6 and I305A on TMH7 (protein, UniProt P02699 1-348, looked up, variant M257Y I305A)
Rhodopsin: MNGTEGPNFYVPFSNKTGVVRSPFEAPQYYLAEPWQFSMLAAYMFLLIMLGFPINFLTLYVTVQHKKLRTPLNYILLNLAVADLFMVFGGFTTTLYTSLHGYFVFGPTGCNLEGFFATLGGEIALWSLVVLAIERYVVVCKPMSNFRFGENHAIMGVAFTWVMALACAAPPLVGWSRYIPEGMQCSCGIDYYTPHEETNNESFVIYMFVVHFIIPLIVIFFCYGQLVFTVKEAAAQQQESATTQKAEKEVTRMVIIYVIAFLICWLPYAGVAFYIFTHQGSDFGPIFMTIPAFFAKTSAVYNPVAYIMMNKQFRNCMVTTLCCGKNPLGDDEASTTVSKTETSQVAPA
B2: M257Y: opsin (rhodopsin) mutant, M257Y on TMH6 (protein, UniProt P02699 1-348, looked up, variant M257Y)
Rhodopsin: B1 Rhodopsin with A305I
B3: K231E.E232I.T251R: opsin (rhodopsin) ICL3 triple mutant (protein, UniProt P02699 1-348, looked up, variant K231E E232I T251R)
Rhodopsin: B1 Rhodopsin with K231E, E232I, T251R, Y257M, A305I

System: transducin
Assay: transducin activation by designed opsin mutants (constitutive and light-induced activity)
Type: biochemical
Settings: data not shown

Molecule	rate of transducin activation (compared to M257Y alone)	constitutive activity compared to WT opsin	constitutive activity as share of the light-induced maximal activity
B1	higher	much larger	
B2		much larger	
B3		dramatically increased	higher than 40%
